One data set deals with α-2-macroglobulin. In words: FITC-trypsin on α-2-macroglobulin-loaded hydrogel microspots; CCD camera.
The next data set deals with Ferritin. In words: FITC-trypsin on ferritin-loaded hydrogel microspots (negative control); CCD camera.
Data set [1] deals with T1, insulin receptor fragment (Peptide No. 1, phosphorylated).
T1 sequence: TRNIXQTNYYRK

For the substance FITC-labeled trypsin (enzyme), the Flourescence Intensity (au) in the data set with α-2-macroglobulin stood at 800 au; in the data set with Ferritin, 20 au.

In the case of “Leucocyte Antigene Related (LAR) protein tyrosin phosphatase”, the “loss of fluorescent signal (removal of the phosphate group, detected with anti-phosphotyrosine antibody)” value in data set [1] is on record as “the LAR-PTPase selectively removes the phosphate group substantially completely from Peptide No. 1”.
